From US6943279B1, “Amino polyol amine oxidase polynucleotides and related polypeptides and methods of use” (priority 1999, dated 2005)
Read-outs that look alike come from different tables or passages of the source.

Experiments:
[1] = tested on: APAO enzyme; type: biochemical, Exophiala spinifera
Experimental: The following assay was used to determine the substrate specificity of the APAO enzyme. […] The APAO enzyme was recombinant enzyme produced,as GST fusion in E. coli, purified over a glutathione affinity column and cleaved with thrombin to remove the GST. All components were mixed at room temperature. The initial rate was determined in a spectrophotometer at 572 nm over one minute by absorbance units/second (BLANK). Ten microliters of APAO at 70 ug/ml was added and mixed. The initial rate was again determined at 572 nm over one minute in absorbance units/second (SAMPLE). The rates were converted to absorbance units/minute. The BLANK value was subtracted from the SAMPLE value. The absorbance units were converted to μM H2O2 wherein 1 μM H2O2 equals 0.138 absorbance units at pH 8.0.

[2] = tested on: APAO; test: APAO activity of crude cell-free extract, TLC; type: biochemical, Exophiala spinifera; conditions: for modification by the crude extract: crude cell-free extract of induced Exophiala spinifera, TLC
Experimental: For analysis of APAO activity, an alternative method was used. Equal volumes of sample and ^14C-AP1 (1 mg/ml, pH 8, 50 mM sodium phosphate) were incubated at room temperature for one to six days. Analytical thin-layer chromatography was then carried out on C60 HPK silica gel plates (Whatman #4807-700; 10×10 cm; 0.2 mm thick). After application of from 0.1 to 2 μl of aqueous sample, the plates were air-dried and developed in CHCl3:MeOH:CH3COOH:H20 (55:36:8:1). Plates were then air dried, and exposed to Phosphorlmager screen (Molecular Dynamics) or autoradiographic film. A Storm™ Phosphorlmager (Molecular Dynamics) was used to scan the image produced on the screen.
A cell-free extract that contains the deaminase activity was obtained by subjecting substrate-induced Exophiala spinifera cells to disruption using a Bead Beater™ in 50 mM Na-phosphate, pH 8.0, and recovering the cell-free supernatant by centrifugation and 0.45 micron filtration. Catabolic activity is assayed by incubating extracts with AP1 (hydrolyzed fumonisin BI backbone) or “^4C-labelled AP1 with the extract and evaluating by TLC on C18 or C60 silica. […] Other amine-containing substrates were tested for modification by the crude extract. […] Preparative amounts of the product, named 2-OP, have also been purified and analyzed by C13 nmr.

[3] = Mutated APAO lysates from E coli, Amplex Red assay, substrate AP1; type: biochemical
Experimental: The following assay was used to determine the substrate specificity of the APAO enzyme. Reaction mix: 436 μl of 200 mM Na-phosphate, pH8.0; 50 μl substrate (10 mM); 2 μl Amplex Red (1 mg in 200 μl DMSO); and 2 μof Peroxidase (5000 U/ml). The APAO enzyme was recombinant enzyme produced,as GST fusion in E. coli, purified over a glutathione affinity column and cleaved with thrombin to remove the GST. All components were mixed at room temperature. The initial rate was determined in a spectrophotometer at 572 nm over one minute by absorbance units/second (BLANK). Ten microliters of APAO at 70 ug/ml was added and mixed. The initial rate was again determined at 572 nm over one minute in absorbance units/second (SAMPLE). The rates were converted to absorbance units/minute. The BLANK value was subtracted from the SAMPLE value. The absorbance units were converted to μM H2O2 wherein 1 μM H2O2 equals 0.138 absorbance units at pH 8.0.
The APAO molecules mutated at specific cysteines were tested in a bacterial expression system using the previously described Amplex Red assay. The results can be seen in the table below entitled “Cys(−) APAO lysates from E. coli.” The mutated APAO molecules can then be tested in maize, linked to a signal peptide, as previously described. Either one of the cysteines or two or three together could be mutated to serines without any measured loss in APAO enzyme activity of the E coli-expressed enzyme. […] The mutated versions of APAO operably linked to a signal sequence, which retain function when expressed as recombinant fusion proteins in E. coli may also provide additional stability or foldability when expressed in plants or other secretion expression systems.

[4] = Mutated APAO lysates from E coli, Amplex Red assay, substrate FB1; type: biochemical
[5] = Mutated APAO lysates from E coli, Amplex Red assay, substrate AP1; type: biochemical; conditions: Glyc(−) APAO lysates from E coli
[6] = 1 mM substrate, pH 8.0, room temperature
[7] = 0.5 mg/mL substrate, pH 8.0, room temperature
[8] = Cys(−) APAO lysates from E coli
[9] = Triple Cys(−) APAO lysates from E coli
[10] = Glyc(−) APAO lysates from E coli

Q: Which RATE ([1]; pH 8) does the source give for NCCCNCCCCNCCCN [spermine] here?
A: The RATE was 0.0002 μM H2O2/min.

Q: Which RATE [1, 6] does the source give for CCCC[C@@H](C)[C@@H](OC(=O)C[C@@H](CC(=O)O)C(=O)O)[C@H](C[C@@H](C)C[C@H](O)CCCCCC[C@H](O)[C@H](C)N)OC(=O)C[C@@H](CC(=O)O)C(=O)O [Fumonisin B3] here?
A: The RATE was 0.1449 μM H2O2/min.

Q: For CCCCCCCCCCCCCC[C@@H](O)[C@@H](O)[C@@H](N)CO [phytosphingosine], which “modification by the crude extract” value [2] is on record?
A: Its value is “apparently not modified”.

Q: For NCCc1ccc(O)c(O)c1 [dopamine], which RATE ([1]; pH 8) is on record?
A: Its RATE is 0.0040 μM H2O2/min.

Q: With NC[C@H](O)c1ccc(O)c(O)c1 [norepinephrine] as the molecule, how does the RATE [1, 6] read?
A: The RATE was 0.0087 μM H2O2/min.

Q: With CCCC[C@@H](C)[C@@H](OC(=O)C[C@@H](CC(=O)O)C(=O)O)[C@H](C[C@@H](C)CCCCCCCC[C@H](O)[C@H](C)N)OC(=O)C[C@@H](CC(=O)O)C(=O)O [Fumonisin B4] as the molecule, how does the RATE [1, 7] read?
A: Its RATE is 0.1728 μM H2O2/min.

Q: Which RATE ([1]; pH 8) does the source give for CNC[C@H](O)c1ccc(O)c(O)c1 [epinephrine] here?
A: The RATE was 0.0071 μM H2O2/min.

Q: Which RATE [1, 7] does the source give for CCCC[C@@H](C)[C@@H](OC(=O)C[C@@H](CC(=O)O)C(=O)O)[C@H](C[C@@H](C)CCCCCC[C@@H](O)C[C@H](O)[C@H](C)N)OC(=O)C[C@@H](CC(=O)O)C(=O)O [Fumonisin B2] here?
A: Its RATE is 0.3058 μM H2O2/min.

Q: With CCCCCCCCCCCCC/C=C/[C@@H](O)[C@@H](N)CO [sphingosine] as the molecule, how does the “modification by the crude extract” value [2] read?
A: Its value is “apparently not modified”.

Q: With CCCCCCCCCCCCCCC[C@@H](O)[C@@H](N)CO [sphinganine] as the molecule, how does the “modification by the crude extract” value [2] read?
A: Its value is “apparently not modified”.

B1: APAO: amino polyol amine oxidase from Exophiala spinifera, ATCC 74269 (SEQ ID NO: 23) (protein, listed as Exophiala spinifera)
chain: MALAPSYINPPNVASPAGYSHVGVGPDGGRYVTIAGQIGQDASGVTDPAYEKQVAQAFANLRACLAAVGATSNDVTKLNYYIVDYAPSKLTAIGDGLKATFALDRLPPCTLVPVSALSSPEYLFEVDATALVPGHTTPDNVADVVVVGAGLSGLETARKVQAAGLSCLVLEAMDRVGGKTLSVQSGPGRTTINDLGAAWINDSNQSEVSRLFERFHLEGELQRTTGNSIHQAQDGTTTTAPYGDSLLSEEVASALAELLPVWSQLIEEHSLQDLKASPQAKRLDSVSFAHYCEKELNLPAVLGVANQITRALLGVEAHEISMLFLTDYIKSATGLSNIFSDKKDGGQYMRCKTGMQSICHAMSKELVPGSVHLNTPVAEIEQSASGCTVRSASGAVFRSKKVVVSLPTTLYPTLTFSPPLPAEKQALAENSILGYYSKIVFVWDKPWWREQGFSGVLQSSCDPISFARDTSIDVDRQWSITCFMVGDPGRKWSQQSKQVRQKSVWDQLRAAYENAGAQVPEPANVLEIEWSKQQYFQGAPSAVYGLNDLITLGSALRTPFKSVHFVGTETSLVWKGYMEGAIRSGQRGAAEVVASLVPAA
Q: Which results are given for B1?
A: activity on intact FB1 and other B-series fumonisins ([1]; recombinant APAO enzyme expressed in E. coli): significant but reduced activity; Conclusion [3, 8]: Active (wild type); M H2O2/min [3, 8]: 2.14 μM H2O2/min; Conclusion [3, 9]: Active (wild type); M H2O2/min [3, 9]: 1.16 μM H2O2/min; AP1 catabolic activity after heating ([2]; following 30 min. at 65° C. or 100° C.): no AP1 catabolic activity remained; activity on intact FB1 ([2]; partially purified APAO enzyme from Exophiala spinifera): little or no activity; Conclusion [4, 8]: Slightly active (wt); M H2O2/min [4, 8]: 0.11 μM H2O2/min; Conclusion [4, 10]: Slightly active (wt); M H2O2/min [4, 10]: 0.12 μM H2O2/min; Conclusion [4, 9]: Slightly active (wt); M H2O2/min [4, 9]: 0.27 μM H2O2/min; Conclusion [5]: Active (wild type); M H2O2/min [5]: 1.92 μM H2O2/min

B2: C359S, C461S: APAO mutated at both cysteines 359 and 461 (SEQ ID NO: 51), plasmid PHP16738 (protein)
chain: KDNVADVVVVGAGLSGLETARKVQAAGLSCLVLEAMDRVGGKTLSVQSGPGRTTINDLGAAWINDSNQSEVSRLFERFHLEGELQRTTGNSIHQAQDGTTTTAPYGDSLLSEEVASALAELLPVWSQLIEEHSLQDLKASPQAKRLDSVSFAHYCEKELNLPAVLGVANQITRALLGVEAHEISMLFLTDYIKSATGLSNIFSDKKDGGQYMRCKTGMQSISHAMSKELVPGSVHLNTPVAEIEQSASGCTVRSASGAVFRSKKVVVSLPTTLYPTLTFSPPLPAEKQALAENSILGYYSKIVFVWDKPWWREQGFSGVLQSSSDPISFARDTSIDVDRQWSITCFMVGDPGRKWSQQSKQVRQKSVWDQLRAAYENAGAQVPEPANVLEIEWSKQQYFQGAPSAVYGLNDLITLGSALRTPFKSVHFVGTETSLVWKGYMEGAIRSGQRGAAEVVASLVPAA
modifications: Cys (-) APAO; removal of cys 359 and 461 (Exophiala spinifera)
Q: With B2 as the molecule, how does the Conclusion [3, 8] read?
A: Its Conclusion is “Fully/More Active”.

Q: And the “M H2O2/min” value [3, 8]?
A: The value was 3.90 μM H2O2/min.

Q: What about the Conclusion ([3]; Cys(−) APAO lysates from E coli, listed as C359S+C461S) of the same molecule?
A: The Conclusion was “more APAO activity in crude lysates than wild type enzyme”.

Q: And the Conclusion [4, 8]?
A: The Conclusion was “Slightly active”.

Q: What about the “M H2O2/min” value [4, 8] of the same molecule?
A: The value was 0.16 μM H2O2/min.

B3: C167S, C359S, C461S: triply Cys-mutated version of APAO (SEQ ID NO: 53), plasmid PHP17089 (protein)
chain: KDNVADVVVVGAGLSGLETARKVQAAGLSSLVLEAMDRVGGKTLSVQSGPGRTTINDLGAAWINDSNQSEVSRLFERFHLEGELQRTTGNSIHQAQDGTTTTAPYGDSLLSEEVASALAELLPVWSQLIEEHSLQDLKASPQAKRLDSVSFAHYCEKELNLPAVLGVANQITRALLGVEAHEISMLFLTDYIKSATGLSNIFSDKKDGGQYMRCKTGMQSISHAMSKELVPGSVHLNTPVAEIEQSASGCTVRSASGAVFRSKKVVVSLPTTLYPTLTFSPPLPAEKQALAENSILGYYSKIVFVWDKPWWREQGFSGVLQSSSDPISFARDTSIDVDRQWSITCFMVGDPGRKWSQQSKQVRQKSVWDQLRAAYENAGAQVPEPANVLEIEWSKQQYFQGAPSAVYGLNDLITLGSALRTPFKSVHFVGTETSLVWKGYMEGAIRSGQRGAAEVVASLVPAA
modifications: Cys (-) APAO; removal of cys 169, 359, and 461 (Exophiala spinifera)
Q: Which Conclusion [3, 8] does the source give for B3 here?
A: Its Conclusion is “Slightly active”.

Q: And the “M H2O2/min” value [3, 8]?
A: Its value is 0.27 μM H2O2/min.

Q: What about the Conclusion [3, 9] of the same molecule?
A: Its Conclusion is “Slightly Active”.

Q: And the “M H2O2/min” value [3, 9]?
A: Its value is 0.27 μM H2O2/min.

Q: And the Conclusion [4, 8]?
A: The Conclusion was “Slightly active”.

Q: What about the “M H2O2/min” value [4, 8] of the same molecule?
A: Its value is 0.25 μM H2O2/min.

Q: And the Conclusion [4, 9]?
A: The Conclusion was “Slightly active”.

Q: What about the “M H2O2/min” value [4, 9] of the same molecule?
A: The value was 0.26 μM H2O2/min.

B4: C461S: APAO mutated at cysteine 461 (SEQ ID NO: 49), plasmid PHP16737 (protein)
chain: KDNVADVVVVGAGLSGLETARKVQAAGLSCLVLEAMDRVGGKTLSVQSGPGRTTINDLGAAWINDSNQSEVSRLFERFHLEGELQRTTGNSIHQAQDGTTTTAPYGDSLLSEEVASALAELLPVWSQLIEEHSLQDLKASPQAKRLDSVSFAHYCEKELNLPAVLGVANQITRALLGVEAHEISMLFLTDYIKSATGLSNIFSDKKDGGQYMRCKTGMQSICHAMSKELVPGSVHLNTPVAEIEQSASGCTVRSASGAVFRSKKVVVSLPTTLYPTLTFSPPLPAEKQALAENSILGYYSKIVFVWDKPWWREQGFSGVLQSSSDPISFARDTSIDVDRQWSITCFMVGDPGRKWSQQSKQVRQKSVWDQLRAAYENAGAQVPEPANVLEIEWSKQQYFQGAPSAVYGLNDLITLGSALRTPFKSVHFVGTETSLVWKGYMEGAIRSGQRGAAEVVASLVPAA
modifications: Cys (-) APAO; removal of cysteine 461 (Exophiala spinifera)
Q: For B4, which Conclusion [3, 8] is on record?
A: The Conclusion was “Fully Active”.

Q: And the “M H2O2/min” value [3, 8]?
A: The value was 2.25 μM H2O2/min.

Q: What about the Conclusion [4, 8] of the same molecule?
A: Its Conclusion is “Slightly active”.

Q: What about the “M H2O2/min” value [4, 8] of the same molecule?
A: The value was 0.14 μM H2O2/min.
